Test results: the supplement of paper PMC9112550, “Optimization of the antimicrobial peptide Bac7 by deep mutational scanning” (BMC Biology, 2022)

Tested on: Escherichia coli TOP10
Experiment: shrunken log2 fold change of peptide-encoding DNA abundance (4.5 h post-induction vs induction); higher = less antimicrobial activity (less host growth inhibition)
Settings: time post-induction: 4.5 h; library: site-saturation at positions 5, 18, 19, 20
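Note: peptides expressed intracellularly from a pBAD plasmid library in pooled LB shake-flask culture, induced with 0.3% L-arabinose, DNA abundance read by NGS, three biological replicates, DESeq2 with apeglm shrinkage.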

Row | Sequence | shrunken log2 fold change
1 | RRIRDRPPRLPRPRPRPKDNPRP | -0.116
2 | RRIRFRPPRLPRPRPRPGLTPRP | -0.143
3 | RRIRYRPPRLPRPRPRPTIGPRP | -0.31
4 | RRIRRRPPRLPRPRPRPTFSPRP | 0.185
5 | RRIRYRPPRLPRPRPRPNAVPRP | -0.00911
6 | RRIRLRPPRLPRPRPRPWSHPRP | 0.00674
7 | RRIRMRPPRLPRPRPRPEMCPRP | 3.01
8 | RRIRSRPPRLPRPRPRPDLIPRP | -0.00967
9 | RRIRCRPPRLPRPRPRPECEPRP | 0.757
10 | RRIRKRPPRLPRPRPRPNFHPRP | 0.676
11 | RRIRARPPRLPRPRPRPFKFPRP | 0.0771
12 | RRIRGRPPRLPRPRPRPSRKPRP | 0.293
13 | RRIRNRPPRLPRPRPRPIQCPRP | -0.01
14 | RRIRIRPPRLPRPRPRPMVCPRP | -0.0245
15 | RRIRERPPRLPRPRPRPQMMPRP | -0.0543
16 | RRIRHRPPRLPRPRPRPPKVPRP | 0.0708
17 | RRIRVRPPRLPRPRPRPTQTPRP | 0.0438
18 | RRIRSRPPRLPRPRPRPLSKPRP | -0.0737
19 | RRIRTRPPRLPRPRPRPINPPRP | -0.0274
20 | RRIRLRPPRLPRPRPRPATTPRP | 0.467
21 | RRIRYRPPRLPRPRPRPASIPRP | -0.229
22 | RRIRRRPPRLPRPRPRPMGWPRP | 0.637
23 | RRIRDRPPRLPRPRPRPTVAPRP | 1.14
24 | RRIRCRPPRLPRPRPRPGMLPRP | -0.135
25 | RRIRNRPPRLPRPRPRPNLWPRP | 0.315

Row | Sequence | shrunken log2 fold change
26 | RRIRHRPPRLPRPRPRPRMNPRP | -0.197
27 | RRIRHRPPRLPRPRPRPCLAPRP | -0.0627
28 | RRIRERPPRLPRPRPRPSQGPRP | -0.153
29 | RRIRHRPPRLPRPRPRPRARPRP | 0.814
30 | RRIRARPPRLPRPRPRPQMCPRP | 0.00812
31 | RRIRDRPPRLPRPRPRPMPMPRP | 0.0753
32 | RRIRARPPRLPRPRPRPIITPRP | -0.298
33 | RRIRPRPPRLPRPRPRPAQIPRP | 0.175
34 | RRIRMRPPRLPRPRPRPIKEPRP | -0.00194
35 | RRIRFRPPRLPRPRPRPQDLPRP | -0.0337
36 | RRIRGRPPRLPRPRPRPHRPPRP | -0.00248
37 | RRIRERPPRLPRPRPRPPSGPRP | 0.275
38 | RRIRIRPPRLPRPRPRPENIPRP | -0.106
39 | RRIRCRPPRLPRPRPRPINLPRP | -0.355
40 | RRIRPRPPRLPRPRPRPDISPRP | 0.0683
41 | RRIRGRPPRLPRPRPRPQMCPRP | 0.522
42 | RRIRYRPPRLPRPRPRPGMDPRP | -0.299
43 | RRIRIRPPRLPRPRPRPKGYPRP | -0.0143
44 | RRIRHRPPRLPRPRPRPGFIPRP | 0.043
45 | RRIRYRPPRLPRPRPRPTFSPRP | -0.383
46 | RRIRLRPPRLPRPRPRPFHRPRP | -0.246
47 | RRIRWRPPRLPRPRPRPRELPRP | 0.642
48 | RRIRYRPPRLPRPRPRPDEVPRP | 0.000691
49 | RRIRNRPPRLPRPRPRPCDLPRP | -0.0345
50 | RRIRFRPPRLPRPRPRPFWGPRP | 0.0215

Row | Sequence | shrunken log2 fold change
51 | RRIRQRPPRLPRPRPRPEKNPRP | 0.172
52 | RRIRSRPPRLPRPRPRPQPFPRP | -0.0168
53 | RRIRSRPPRLPRPRPRPFKKPRP | 0.0549
54 | RRIRIRPPRLPRPRPRPLSWPRP | -0.0609
55 | RRIRLRPPRLPRPRPRPIQRPRP | -0.00804
56 | RRIRVRPPRLPRPRPRPWYCPRP | -0.462
57 | RRIRFRPPRLPRPRPRPQKDPRP | -0.376
58 | RRIRLRPPRLPRPRPRPRMNPRP | 0.179
59 | RRIRSRPPRLPRPRPRPFDSPRP | -0.0702
60 | RRIRHRPPRLPRPRPRPDQNPRP | -0.14
61 | RRIRRRPPRLPRPRPRPTPYPRP | 0.545
62 | RRIRYRPPRLPRPRPRPKAYPRP | 0.00787
63 | RRIRHRPPRLPRPRPRPCPQPRP | -0.195
64 | RRIRNRPPRLPRPRPRPRSSPRP | -0.145
65 | RRIRLRPPRLPRPRPRPHRCPRP | -0.0644
66 | RRIRYRPPRLPRPRPRPLNYPRP | -0.0845
67 | RRIRDRPPRLPRPRPRPGVCPRP | 0.358
68 | RRIRKRPPRLPRPRPRPPMKPRP | 0.135
69 | RRIRVRPPRLPRPRPRPICEPRP | 0.058
70 | RRIRIRPPRLPRPRPRPQAKPRP | 0.2
71 | RRIRKRPPRLPRPRPRPKGDPRP | -0.0351
72 | RRIRDRPPRLPRPRPRPGHHPRP | 0.0913
73 | RRIRLRPPRLPRPRPRPLKEPRP | 0.00325
74 | RRIRNRPPRLPRPRPRPRDTPRP | -0.457
75 | RRIRKRPPRLPRPRPRPTSIPRP | 0.208
